Measurements: patent US20260234242A1 (HAINAN SIMCERE ZAIMING PHARMACEUTICAL, published 2026)

T1: his-tagged human CDH6 extracellular region protein (hCDH6 ECD-his) (human, UniProt P55285 19-615)
T1 construct: also called Human CDH6-his; hCDH6-his; not shown: his tag
T1 sequence: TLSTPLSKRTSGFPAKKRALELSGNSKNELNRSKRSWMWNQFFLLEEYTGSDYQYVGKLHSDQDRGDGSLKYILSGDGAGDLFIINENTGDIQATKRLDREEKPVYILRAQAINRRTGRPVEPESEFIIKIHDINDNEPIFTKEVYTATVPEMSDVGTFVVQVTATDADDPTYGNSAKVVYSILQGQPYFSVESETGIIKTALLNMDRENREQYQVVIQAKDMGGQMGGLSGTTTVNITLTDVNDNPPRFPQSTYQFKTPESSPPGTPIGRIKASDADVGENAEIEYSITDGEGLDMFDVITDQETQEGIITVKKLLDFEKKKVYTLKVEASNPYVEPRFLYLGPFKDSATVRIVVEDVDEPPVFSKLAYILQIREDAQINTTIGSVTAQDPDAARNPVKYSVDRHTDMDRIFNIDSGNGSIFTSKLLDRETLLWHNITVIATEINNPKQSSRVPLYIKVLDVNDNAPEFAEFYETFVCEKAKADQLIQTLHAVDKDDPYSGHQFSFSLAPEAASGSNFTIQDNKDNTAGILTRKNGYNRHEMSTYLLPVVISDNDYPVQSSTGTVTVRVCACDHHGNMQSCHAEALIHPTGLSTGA

T2: human CDH6 with EC5 removed, on HEK293T cells (HEK293T-hCDH6-EC5 deletion) (human, UniProt P55285 54-790)
T2 construct: Signal peptide not removed here
T2 sequence: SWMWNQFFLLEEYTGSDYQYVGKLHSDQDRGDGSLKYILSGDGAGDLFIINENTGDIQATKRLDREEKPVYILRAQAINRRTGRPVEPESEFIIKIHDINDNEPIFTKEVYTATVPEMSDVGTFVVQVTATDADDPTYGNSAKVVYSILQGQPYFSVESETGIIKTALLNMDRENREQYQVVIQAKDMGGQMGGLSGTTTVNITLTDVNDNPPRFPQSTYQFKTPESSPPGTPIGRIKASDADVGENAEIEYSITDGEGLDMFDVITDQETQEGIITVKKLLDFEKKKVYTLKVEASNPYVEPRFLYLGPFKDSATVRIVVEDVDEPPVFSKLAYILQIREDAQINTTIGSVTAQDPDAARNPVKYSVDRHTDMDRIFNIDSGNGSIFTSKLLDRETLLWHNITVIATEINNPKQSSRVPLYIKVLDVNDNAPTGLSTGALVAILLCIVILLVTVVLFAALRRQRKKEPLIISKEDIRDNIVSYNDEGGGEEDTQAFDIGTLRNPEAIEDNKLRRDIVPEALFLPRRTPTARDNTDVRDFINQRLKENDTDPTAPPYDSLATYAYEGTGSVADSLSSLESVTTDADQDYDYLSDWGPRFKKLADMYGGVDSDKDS


Assays:
[1] = biological target: T1, his-tagged human CDH6 extracellular …; assay: ELISA, coated antigen; ELISA, coated hCDH6 ECD-his; plateau signal
Description: Human CDH6 protein (hCDH6 ECD-his, conventionally synthesized), monkey CDH6 protein (cynoCDH6 ECD-his, conventionally synthesized; the cynoCDH6 ECD sequence was derived from Uniprot #A0A2K5TW62 (19-615)), and murine CDH6 protein (mCDH6 ECD-his, conventionally synthesized; the mCDH6 ECD sequence was derived from Uniprot #P97326 (19-615)) were diluted with PBS to a final concentration of 1 μg/mL, and added to a 96-well ELISA plate at 100 μL/well. The plate was incubated at 4° C. overnight. The next day, the plate was washed 3 times with a plate washing solution (PBS+0.01% (v/v) Tween 20), and a blocking buffer (PBS+0.01% (v/v) Tween 20+2% (w/w) BSA) was added for blocking at room temperature for 2 h. The blocking buffer was discarded, and the plate was washed 3 times. The chimeric antibodies were diluted with 1% BSA+PBS (purchased from Cytiva, Cat. No. SH30264.01) and added to the 96-well plate at 50 μL/well. After incubation at 37° C. for 2 h, the plate was washed 3 times with a plate washing solution. […] The plate was incubated at 37° C. for 1 h and then washed 5 times with a plate washing solution. A TMB substrate (purchased from Seracare, Cat. No. 5120-0077) was added at 50 μL/well and incubated at room temperature for 10 min, then a stop solution (1.0 N HCl) was added at 50 μL/well. OD450 nm values were read using a microplate reader (Biotek). Analysis was performed by the GraphPad Prism software, data were fitted, and EC50 values were calculated. The chimeric antibodies tested all had strong binding to the human CDH6 protein, the monkey CDH6 protein, and the murine CDH6 protein.

[2] = biological target: T2, human CDH6 with EC5 removed, on HEK293T …; assay: FACS, HEK293T-hCDH6-EC5 deletion cells
Text: To confirm the binding epitope of the CDH6 antibody, the sequences after removal of these 5 regions were constructed into pcDNA3.1 vectors (purchased from Youbio, Cat. No. VT1001), and transfected into HEK293T cells (purchased from Cell Bank of Chinese Academy of Sciences, Cat. No. SCSP-502) to obtain 5 CDH6 truncated cell lines: HEK293T-hCDH6-EC1 deletion, HEK293T-hCDH6-EC2 deletion, HEK293T-hCDH6-EC3 deletion, HEK293T-hCDH6-EC4 deletion, and HEK293T-hCDH6-EC5 deletion.
The binding activity of the CDH6 chimeric antibodies to these 5 cell lines was assayed by FACS.

Binder	Max OD450 [1]	Max MFI [2]
DS-H01L02 (antibody, human IgG1, kappa, V domains shown, Positive control, variable regions from WO2018212136A1; also called positive control anti-human CDH6 antibody) VH: EVQLVQSGAEVKKPGASVKVSCKASGYTFTRNFMHWVRQAPGQGLEWMGWIYPGDGETEYAQKFQGRVTITADTSTSTAYMELSSLRSEDTAVYYCARGVYGGFAGGYFDFWGQGTLVTVSS VL: DIQMTQSPSSLSASVGDRVTITCKASQNIYKNLAWYQQKPGKAPKLLIYDANTLQTGVPSRFSGSGSGSDFTLTISSLQPEDFATYFCQQYYSGWAFGQGTKVEIKR	1.89 OD450	1530 MFI
CHI-CDH6-4 (antibody, human IgG1, kappa, V domains shown, also called CH1-CDH6-4; chimeric antibody of murine CDH6-4) VH: QVQLQQSGPELVKPGASVKISCKASGYAFSNFWMNWVKQRPGKGLEWIGWIYPGDGDTNYNGKFKDKATLTADKSSSTAYIQLSSLTSEDSAVYFCARLYDAWGFFDYWGQGTTLTVSS VL: QIVLTQSPAIMSASPGQKVTITCSASSSVNYMHWYQQKLGSSPKLWIYDKSKLAPGVPARFSGSGSGTSYSLTISSMEAEDAASYFCHQWSSYPPMTFGGGTKLEIKR	2.14 OD450	6540 MFI
CHI-CDH6-5 (antibody, human IgG1, kappa, V domains shown, also called CH1-CDH6-5; chimeric antibody of murine CDH6-5) VH: QVQLQQSGAELVRPGTSVKMSCKAAEYTFTNYWIGWVKQRPGHGLEWIGDLYPGGDHANYNEKFEGKATLTADTSSSTAYMQLSSLTSEDSAIYYCARGMLTTGFDSWGQGTTLTVSS VL: DIVMSQSPSSLAVSAGEKVTMSCKSSQSLFNSRTRKNYLAWYQQKPGQSPKLLIYWASTRESGVPDRFTGSGSGTDFTLTISSVQAEDLAVYYCKQSYYLRTFGGGTKLEIKR	1.79 OD450	4240 MFI
CHI-CDH6-12 (antibody, human IgG1, kappa, V domains shown, also called CH1-CDH6-12; chimeric antibody of murine CDH6-12) VH: EVNLVESGGGLVQPGDSLTLSCSASGFTFTDYYMSWVRQFPGKALEWLALIRNKANSYTTEYSASVKGRFTISRDNSQSILYLQMNALRAEDSATYYCARDSYYSHDGFAYWGQGTLVTVSA VL: DIVLTQSPASLAVSLGQRATISCRASKSVSTSSYTYMHWYQQKPGQPPKLLIKFASYLESGVPARFSGSGSGTDFTLNIHPVEEEDAATYYCQHSREFPFTFGTGTKLEIKR	1.82 OD450	4490 MFI
CHI-CDH6-3 (antibody, human IgG1, kappa, V domains shown, also called CH1-CDH6-3; chimeric antibody of murine CDH6-3) VH: QVQLQQPGAELVKPGASVKLSCKASGYTFTSYWIHWVKQRPGQGLEWIGEINPSNGVTNCNENFKSKATLTVDKSSSTAYMQLSSLTSEDSAVYYCTIPNLLWWYFDVWGAGTTVTVSS VL: DIQMTQSPASLSVSVGETVTITCRASENIYSNLAWYQQKQGKSPQLLVYEATNLADGVPSRFSGSGSGTQYSLKINSLQSEDFGSYYCQHFWGTLWTFGGGTKLEIKR	2.56 OD450	5610 MFI
CHI-CDH6-7 (antibody, human IgG1, kappa, V domains shown, also called CH1-CDH6-7; chimeric antibody of murine CDH6-7) VH: EVKLVESGGGLVKPGGSLKVSCAASGFTFSDHGMAWVRQAPGKGPEWVAFISNLAYSIYYADTVTGRFTISRENAKNTLYLEMSSLRSEDTAMYYCARVYVKWYFDVWGAGTTVTVSS VL: DIQMTQSPASLSASVGETVTITCRASENIDSYLAWYQQKQGKSPQLLVFAATLLADGVPSRFSGSGSGTQYSLKINSLQSEDVARYYCQHYYSTPLTFGAGTKLELKR	1.78 OD450	1020 MFI
